This is an account of results in patent US20130296258A1 (Pieris, published 2013).

The chains are these.
B1: PIE-G3E (designed binder)
chain: QDSTSDLIPAPPLSKVPLQQNFQDNQFHGKWYVVGSAGNHRLREDKDPRKMHATIYELKEDKSYNVTNVTFREKKCHYSIGTFVPGSQPGEFTLGKIKSNPGMTSFLVRVVSTNYNQHAMVFFKKVHQNREQFNITLYGRTKELTSELKENFIRFSKSLGLPENHIVFPVPIDQCIDGSAWSHPQFEK
notes: C-terminal Strep-tag II; also called Lcn2 mutein; not shown: C-terminal Strep-tag II
B2: PIE-G3B (designed binder)
chain: QDSTSDLIPAPPLSKVPLQQNFQDNQFHGKWYVVGVAGNAMLREDKDPLKMRATIYELKEDKSYNVTGVSFWRKKCHYKIGTFVPGSQPGEFTLGDIKSGPGQTSNLVRVVSTNYNQHAMVFFKEVRQNREWFAITLYGRTKELTSELKENFIRFSKSLGLPENHIVFPVPIDQCIDGSAWSHPQFEK
notes: as for B1
B3: PIE-G3H (designed binder)
chain: QDSTSDLIPAPPLSKVPLQQNFQDNQFHGKWYVVGIAGNYILREDKDPPKMRATIYELKEDKSYNVTRVFFSRKKCDYIIWTFVPGSQPGEFTLGFIKSNPGLTSLLVRVVSTNYNQHAMVFFKWVDQNREVFGITLYGRTKELTSELKENFIRFSKSLGLPENHIVFPVPIDQCIDGSAWSHPQFEK
notes: as for B1
B4: PIE-G3G (designed binder)
chain: QDSTSDLIPAPPLSKVPLQQNFQDNQFHGKWYVVGMAGNASLREDKDPRKMNATIYELKEDKSYNVTKVRFWHKKCYYSITTFVPGSQPGEFTLGDIKSYPGWTSYLVRVVSTNYNQHAMVFFKGVRQNREWFSITLYGRTKELTSELKENFIRFSKSLGLPENHIVFPVPIDQCIDGSAWSHPQFEK
notes: as for B1
B5: PIE-G3A (designed binder)
chain: QDSTSDLIPAPPLSKVPLQQNFQDNQFHGKWYVVGIAGNWILREDKDPPKMRATIYELKEDKSYNVTRVRFDEKKCGYGIATFVPGSQPGEFTLGVIKSRPGITSDLVRVVSTNYNQHAMVFFKFVKQNREYFGITLYGRTKELTSELKENFIRFSKSLGLPENHIVFPVPIDQCIDGSAWSHPQFEK
notes: Made in E. coli from phNGAL98 with a C-terminal Strep-tag II; also called Lcn2 mutein; not shown: C-terminal Strep-tag II
B6: PIE-G3D (designed binder)
chain: QDSTSDLIPAPPLSKVPLQQNFQDNQFHGKWYVVGMAGNARLREDKDPVKMTATIYELKEDKSYNVTAVQFRLKKCQYGITTFVPGSQPGEFTLGDIKSIPGLTSMLVRVVSTNYNQHAMVFFKRVRQNREFFDITLYGRTKELTSELKENFIRFSKSLGLPENHIVFPVPIDQCIDGSAWSHPQFEK
notes: as for B1
B7: PIE-G3C (designed binder)
chain: QDSTSDLIPAPPLSKVPLQQNFQDNQFHGKWYVVGRAGNVALREDKDPPKMRATIYELKEDKSYNVTNVRFAMKKCMYSIGTFVPGSQPGEFTLGQIKSEPGNTSNLVRVVSTNYNQHAMVFFKEVYQNREIFFITLYGRTKELTSELKENFIRFSKSLGLPENHIVFPVPIDQCIDGSAWSHPQFEK
notes: as for B1
B8: PIE-G3F (designed binder)
chain: QDSTSDLIPAPPLSKVPLQQNFQDNQFHGKWYVVGIAGNGQLREDKDPWKMSATIYELKEDKSYNVTSVRFRLKKCSYWIYTFVPGSQPGEFTLGGIKSNPGDTSNLVRVVSTNYNQHAMVFFKYVIQNREWFIITLYGRTKELTSELKENFIRFSKSLGLPENHIVFPVPIDQCIDGSAWSHPQFEK
notes: as for B1

One assay addresses T1, cyno GPC3-SK-HEP1 (Macaca fascicularis, UniProt A0A2K5VK50).
T1 construct: cell-surface protein on transfected cells; also called cynomolgus GPC3; cyno GPC3 transfected SK-Hep1 cells
The assay can be described thus: flow cytometry on SK-HEP1 cells stably transfected with cynomolgus GPC3, detection via rabbit anti-hNGAL antiserum and anti-rabbit IgG-PE. Here is the method: (§1) Empty vector control cells were also obtained and analyzed in parallel. Detection of GPC3 was achieved using mouse anti-glypican 3 clone 1G12 monoclonal antibody (DCS).
(§2) In order to assess binding of muteins to the GPC3 on the cell surface, 200,000 cells in PBS/2% FCS were used in each binding reaction. Reactions were performed on ice in 30 μl for 2 h. Following two washing steps in PBS/2% FCS a secondary rabbit anti-hNGAL scaffold antiserum was employed for 30 min. followed another two wash steps. […] Measurements were performed on a FACSCalibur flow cytometer where 10,000 events were acquired for each sample. Geometric mean values were compiled in FlowJo (Treestar software) and fitted to a sigmoidal dose response model in the Prism 5 program (GraphPad) to obtain EC50 values.
For orientation: Flow cytometry measures light scatter and fluorescence of single cells or particles in a stream.
As for B1, it took 0.12 nM to reach a half-maximal effect (EC50).
Still for that read-out and setting: in the case of B2 it was 1.1 nM; in that of B3, 98 nM; in that of B4, 0.2 nM.
Consider B5, for which the EC50 (as a rule, the concentration needed to bring the measured effect to its halfway point) is above 100 nM.
As to B6, the EC50 turned out to be 0.7 nM.
In the case of B7, the concentration for a half-maximal effect (EC50) was found to be 0.2 nM.
Still for that read-out and setting: with B8 the figure was 3.2 nM.

In another assay the target is T2, Recombinant human Glypican-3 (human, UniProt P51654 25-559, limits assumed, randomly biotinylated via Lysine residues (EZ-Link Sulfo-NHS-LC-LC-Biotin) where captured on Neutravidin; not biotinylated where used as competitor in solution).
T2 construct: Bought protein; The biotinylated and the non-biotinylated preparation are written as one molecule; also called GPC3; GPC-3
T2 sequence (P51654 25-559 limits assumed): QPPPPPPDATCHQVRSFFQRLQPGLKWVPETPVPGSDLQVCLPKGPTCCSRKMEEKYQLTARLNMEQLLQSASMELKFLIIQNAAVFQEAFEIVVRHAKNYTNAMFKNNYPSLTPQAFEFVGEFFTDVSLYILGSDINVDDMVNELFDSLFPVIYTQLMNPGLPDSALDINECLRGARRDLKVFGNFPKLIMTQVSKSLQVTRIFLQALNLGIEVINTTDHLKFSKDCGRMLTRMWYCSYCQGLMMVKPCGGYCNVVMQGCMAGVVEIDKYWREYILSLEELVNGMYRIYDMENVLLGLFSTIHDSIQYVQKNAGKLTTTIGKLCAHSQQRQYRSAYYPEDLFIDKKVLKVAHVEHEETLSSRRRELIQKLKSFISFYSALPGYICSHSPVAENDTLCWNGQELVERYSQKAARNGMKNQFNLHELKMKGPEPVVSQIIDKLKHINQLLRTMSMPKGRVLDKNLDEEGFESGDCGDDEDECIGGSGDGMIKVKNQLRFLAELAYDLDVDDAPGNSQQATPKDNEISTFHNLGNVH
In words: competition ELISA: constant mutein pre-incubated with a dilution series of non-biotinylated human Glypican-3, free mutein detected on plate-captured biotinylated human Glypican-3. Here is the method: The binding affinity of the Lcn2 muteins to non-modified Glypican-3 in solution was evaluated in a competition ELISA approach. Therefore, a constant concentration of 1 μg/ml biotinylated human Glypican-3 (R&D Systems) was captured on the surface of a polystyrol plate (Greiner, GE) via Neutravidin (Thermo Scientific, 5 μg/ml, GE). In parallel a two step dilution series of non-biotinylated human Glypican-3 starting from 1.5 μM was incubated with a constant concentration of GPC3-specific mutein for 1 h at room temperature in a non-protein binding 96 well polypropylene plate (Nunc, GE). The constant concentration of lipocalin muteins corresponds to the EC₅₀ of the respective muteins as determined in a direct ELISA as described above in this example. In the following the mixture of non-modified human GPC3 and lipocalin mutein was transferred onto the GPC3-captured Neutravidin plate. The biotinylated GPC3 was allowed to compete with the non-modified GPC3 for Anticalin binding for 1 h at room temperature. During these 1 h, free lipcocalin mutein was bound to the captured GPC3 and detected via a rabbit anti-strep-tag II polyconal antibody (GenScript, USA). A goat anti-rabbit IgG-HRP conjugate (Abcam, UK) was employed as secondary detection antibody. Parallel to the competition assay, anticalin binding was determined on the same plate in a “direct” ELISA, in order to obtain a standard curve linking the RFU values to anticalin concentration. This curve was then used to standardize competition data to the level of anticalins bounds to the plate and fitted with Graphpad software. IC₅₀ values correspond to the half-maximum amount of lipocalin mutein bound to the plate.
(In general: ELISA stands for enzyme-linked immunosorbent assay.)
Regarding B1, the half-maximal inhibitory concentration (IC50) (as a rule, the midpoint of a concentration-inhibition curve) was 0.1 nM.
Still for that read-out and setting: with B2 the figure was 0.2 nM.
Still for that read-out and setting: in the case of B3 it was 0.23 nM.
On the same count and under the same terms, with B4 the figure was 0.1 nM.
For the molecule B5, the IC50 was 0.6 nM.
Same read-out and setting: with B6 the figure was 0.7 nM; with B7, 1 nM.
Still for that read-out and setting: in the case of B8 it was 0.07 nM.

For the next assay, the target named is T2, Recombinant human Glypican-3. In words: SPR (Biacore T100), Glypican-3 amine-coupled to a CM5 chip, mutein as analyte, evaluated conc 40/120 nM, 1:1 model. Here is the method: (§3) Real time analysis of the binding of the Lcn2 muteins to Glypican-3 was performed on a Biacore T100 system (GE Healthcare Bio-Sciences AB, Uppsala, Sweden) using HBS-EP+ (BR-1006-69, GE Healthcare Bio-Sciences AB, Uppsala, Sweden) as running buffer. A 10 μg/mL solution of Glypican-3 in 10 mM sodium acetate pH 4.5 was immobilized onto a CM5 chip (GE Healthcare Bio-Sciences AB, Uppsala, Sweden) using standard amine coupling chemistry, resulting in a ligand density of 467 RU. The purified Lcn2 muteins were applied in concentrations of 40 nM and 120 nM at a flow rate of 30 μL/min. The dilutions were injected with association times of 120 sec and dissociation times of 420 sec to obtain ka and kd information. Regeneration of the ligand was achieved by injecting either 6 M Guanidinium-HCl (120 sec/300 sec) or 3 M MgCl2 (900 sec) with a flow rate of 10 μL/min. Injection of regeneration solutions was followed by an extra wash step with running buffer and a stabilization period of 180 sec.
(§4) The data were double-referenced by subtraction of the corresponding signals measured for the control channel, which had been activated and blocked with ethanolamine and by substraction of buffer injections from the binding responses. ka and kd for the binding reaction were determined using Biacore T100 Evaluation Software V2.0.1 for data processing and kinetic fitting. The data were globally fit with 1:1 binding model.
For the molecule B1, the Kd (commonly the concentration at which binding is half-saturated) came out at 0.35 nM; the off-rate (koff) – broadly, the first-order rate constant of dissociation – came to 0.00178 s⁻¹; the kon (in general, a measure of how fast the partners come together) stood at 5.11e+06 M⁻¹ s⁻¹.
On the same counts, the results for B2 are 0.55 nM, 0.000242 s⁻¹ and 438000 M⁻¹ s⁻¹.
Regarding B4, the Kd turned out to be 0.51 nM, the off-rate (koff) turned out to be 0.000723 s⁻¹ and the kon came to 1.42e+06 M⁻¹ s⁻¹.
Take B5: the Kd was 3.78 nM, the off-rate constant (koff) was 0.000603 s⁻¹ and the kon worked out at 160000 M⁻¹ s⁻¹.
On to B6, for which the Kd is 1.4 nM, the koff stood at 0.00109 s⁻¹ and the kon amounted to 781000 M⁻¹ s⁻¹.
The corresponding values for B7 are 1.21 nM, 0.00238 s⁻¹ and 1.97e+06 M⁻¹ s⁻¹.
On the same counts, the results for B8 are 3.13 nM, 0.00128 s⁻¹ and 409000 M⁻¹ s⁻¹.

In a further assay the target is T3, mouse GPC3-SK-HEP1 (mouse, UniProt Q8CFZ4).
T3 construct: cell-surface protein on transfected cells; also called mouse GPC3 transfected SK-Hep1 cells
T3 sequence (Q8CFZ4 25-553 limits assumed): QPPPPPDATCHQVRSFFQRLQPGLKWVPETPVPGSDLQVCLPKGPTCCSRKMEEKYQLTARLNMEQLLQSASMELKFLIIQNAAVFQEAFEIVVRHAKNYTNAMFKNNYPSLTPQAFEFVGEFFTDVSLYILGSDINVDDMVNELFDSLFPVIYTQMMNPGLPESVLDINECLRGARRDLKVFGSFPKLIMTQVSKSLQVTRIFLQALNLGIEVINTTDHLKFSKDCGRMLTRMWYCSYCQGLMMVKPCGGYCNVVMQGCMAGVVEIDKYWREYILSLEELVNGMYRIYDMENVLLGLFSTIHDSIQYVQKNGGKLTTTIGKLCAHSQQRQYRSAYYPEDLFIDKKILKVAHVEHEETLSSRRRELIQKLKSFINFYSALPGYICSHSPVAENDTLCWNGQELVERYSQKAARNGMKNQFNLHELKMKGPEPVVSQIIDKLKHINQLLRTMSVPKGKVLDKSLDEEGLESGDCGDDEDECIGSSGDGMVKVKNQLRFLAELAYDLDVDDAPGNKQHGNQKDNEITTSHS
The assay can be described thus: flow cytometry on SK-HEP1 cells stably transfected with mouse GPC3, detection via rabbit anti-hNGAL antiserum and anti-rabbit IgG-PE. As for the experimental part: as §1, §2
The molecule B1 displayed an EC50 of 2.7 nM.
In turn, B2 returned an EC50 of 2.9 nM.
Same read-out and setting: with B3 the figure was 580 nM; with B4, 4.3 nM.
Molecule B6 yielded a concentration giving a half-maximal response (EC50) of 10.5 nM.
B7 gave an EC50 of 3.5 nM.
Take B8: the half-maximal effective concentration (EC50) was determined as 18.7 nM.

Another assay deals with T2, Recombinant human Glypican-3. The assay can be described thus: direct ELISA; biotinylated human Glypican-3 (1 ug/ml) captured via Neutravidin, dilution series of purified mutein. Here is the method: A “direct” ELISA was performed to verify the binding affinity and specificity of the selected Lcn2 muteins. Therefore, a constant concentration of 1 μg/ml biotinylated human Glypican 3 (R&D Systems) was captured on the surface of a polystyrol plate (Greiner, GE) via BSA blocked Neutravidin (Thermo Scientific, 5 μg/ml). Two step dilution series of purified Lcn2 muteins were incubated with the captured GPC-3 for 1 h at room temperature and detected either via the Strep-tag II using a rabbit anti-strep-tag II polyconal antibody (GenScript, USA) or by using a scaffold-specific polyclonal rabbit antibody. In both cases an anti rabbit IgG-HRP conjugate (Abcam, UK) was employed as secondary detection antibody.
The absorption ΔA at […] was measured in an ELISA reader (Tecan, GE) and the data were fitted with Graphpad Prism software (Statcom, USA).
For B1, the Kd was found to be 0.2 nM.
Consider B2, for which the dissociation constant Kd is 0.27 nM.
On the same count and under the same terms, in the case of B3 it was 0.3 nM; in that of B4, 0.27 nM.
Turning to B5, the dissociation constant (Kd) was 7.6 nM.
Take B6: the Kd was 0.46 nM.
On to B7, for which the equilibrium dissociation constant (Kd) is 0.32 nM.
Same read-out and setting: in the case of B8 it was 0.35 nM.

A further assay shares this target. The assay can be described thus: SPR (Biacore T100), Glypican-3 amine-coupled to a CM5 chip, mutein as analyte, evaluated conc 120 nM, 1:1 model. As for the experimental part:
as §3, §4
(In general: In SPR one partner is held on a chip, and binding of the other changes the refractive index at the surface.)
As for B3, the Kd amounted to 1.07 nM, the koff stood at 0.000209 s⁻¹ and the on-rate constant (kon) was 195000 M⁻¹ s⁻¹.

For another assay the target is unchanged. In words: flow cytometry on SK-HEP1 cells stably transfected with human GPC3, detection via rabbit anti-hNGAL antiserum and anti-rabbit IgG-PE. Here is the method: as §1, §2
Consider B1, for which the EC50 was determined as 0.4 nM.
Still for that read-out and setting: with B2 the figure was 2.5 nM.
In the case of B3, the half-maximal effective concentration (EC50) was determined as 49 nM.
The same measure, in the same setting: in the case of B4 it was 0.7 nM; in that of B5, above 100 nM.
Turning to B6, the EC50 amounted to 1 nM.
Still for that read-out and setting: in the case of B7 it was 0.5 nM; in that of B8, 4.7 nM.
